Laboratory results as given in US7285380B2, “Methods of producing polyketide synthase mutants and compositions and uses thereof” (The Salk Institute for Biological Studies, priority 2000, dated 2007).
Positions count from the first letter of the chain named. In names and notes the source's numbering stands. Entries after “also recorded” stand apart in the source; their conditions may differ. One block for each molecule: values may come before it.

How the values were obtained:
[1] = biological target: 2-Pyrone synthase (2-PS) from Gerbera hybrida (Gerbera hybrida); experiment: X-ray crystal structure, homodimer interface
[2] = TLC-based radiometric assay of product formation by 2-PS, CHS and CHS mutants (LC/MS confirmation); type: biochemical; details: for product formed: 100 mM Hepes pH 7.0, 30 μM starter-CoA, 60 μM [14C]-malonyl-CoA, 25° C
Source text: Comparison of the initiation/elongation cavities of 2-PS (SEQ ID NO:68) and CHS (SEQ ID NO:1) reveal four amino acid differences. In 2-PS, Leu202, Met259, Leu261, and Ile343 replace Thr197, Ile254, Gly256, and Ser338, respectively, of CHS. These four substitutions reduce cavity volume from 923 Å^3 in CHS to 274 Å^3 in 2-PS. A model of methylpyrone in the 2-PS cavity, based on the position of acetoacetyl-CoA, emphasizes the volume change compared to the CHS-naringenin complex (Accession No. 1 CGK, SEQ ID NO:69). Leu202 and Ile343 occlude the portion of the 2-PS cavity corresponding to the coumaroyl-binding site of CHS. Replacement of Gly256 in CHS by Leu261 in 2-PS severely reduces the size of the active site cavity. Substitution of Met259 in 2-PS for Ile254 in CHS produces a modest alteration in cavity volume. To examine the functional importance of these amino acid differences, the initiation/elongation cavity of CHS was altered by mutagenesis to resemble that of 2-PS. The resulting mutant proteins were screened for activity using either p-coumaroyl-CoA or acetyl-CoA as starter molecules. Activities of 2-PS, CHS, and the CHS mutants were determined by monitoring product formation using a TLC-based radiometric assay. Assay conditions were 100 mM Hepes (pH 7.0), 30 μM starter-CoA (either p-coumaroyl-CoA or acetyl-CoA), and 60 μM [^14C]-malonyl-CoA (50,000 cpm) in 100 μl at 25° C. Reactions were quenched with 5% acetic acid, extracted with ethyl acetate, and applied to TLC plates and developed. Due to the spontaneous cyclization of chalcone into the flavanone naringenin, activities of CHS are referenced to nanngenin formation.
The x-ray crystal structures of 2-PS (SEQ ID NO:68) and CHS (SEQ ID NO:1) imply that the size of the active site cavity limits polyketide length and modulates folding of the polyketide chain. […] Since the T197L, G256L, and S338Imutants (see SEQ ID NO:1) altered product formation, a CHS triple mutant was generated. […] LC/MS/MS analysis was performed by the Mass Spectroscopy facility of the Scripps Research Institute. Scaled-up assays (2 ml reaction volume) with the CHS T197L/G256L/S338I mutant (see SEQ ID NO:1) and 2-PS (SEQ ID NO:68) were performed. Extracts were analyzed on a Hewlett-Packard HP1100 MSD single quadrupole mass spectrometer coupled to a Zorbax SB-C18 column (5 μm, 2.1 mm×150 mm). HPLC conditions were as follows: gradient system from 0 to 100% methanol in water (each containing 0.2% acetic acid) within 10 mm; flow rate 0.25 ml min^−1. LC/MS/MS data from both reactions were identical: 6-methyl-4-hydroxy-2-pyrone, Rt=5.068 mm; [M-H]^−125; [M-H—CO2]^−81. The numbers show m/z values with relative intensities in parenthesis. The observed fragmentation matches previously published data.

CHS = details: cited from earlier work
[3] = Malonyl-CoA decarboxylation by C164S mutant (crystallographic and functional assay); type: biochemical
Source text: Asn336 appears to play a crucial role in the decarboxylation reaction. […] In the hexanoyl-CoA complex, the side chain amide of Asn336 provides a hydrogen bond to the carbonyl oxygen of the thioester. This interaction would stabilize the enolate anion resulting from decarboxylation of malonyl-CoA (see FIG. 6). At the same time, the lack of formal positive charge at Asn336 may preserve the partial carbanion character of this resonance-stabilized anion, and thus the nucleophilicity of the carbanion form.

[4] = 14C malonyl-CoA assay of CHS mutants, products analysed by TLC and autoradiography (naringenin vs resveratrol); type: biochemical; details: TLC autoradiography
Source text: Wild type CHS produces chalcone, which spontaneously converts to naringenin, the position of which is indicated by the arrow on the left. Wild type STS produces resveratrol, the position of which is indicated by the arrow of the right. Function conversion of CHS to STS (i.e., the production of the alternate product from the same intermediate) results in diminished production of naringenin and increased production of resveratrol. Various mutants of CHS produce varying degrees of resveratrol, showing that CHS activity can be altered to STS-like activity to different extents by different mutations.
Mutant CHS (SEQ ID NO: 1) has altered activity based on assays conducted with ^14C malonyl-CoA. Products were extracted with ethyl acetate and analyzed by silica gel thin layer chromatography (TLC) and visualized by autoradiography.

[5] = Activity and kinetics of 18xCHS / 8xCHS compared with wild type CHS and STS; type: biochemical; details: listed as 8×CHS
[6] = starter p-coumaroyl-CoA or acetyl-CoA

- surface area buried per monomer by the dimerization surface [1]: 1800 Å^2
Molecule: 2-Pyrone synthase (2-PS) from Gerbera hybrida (enzyme)

Molecule: 2-PS: 2-Pyrone synthase from Gerbera hybrida, SEQ ID NO:68 [Mutant 2-PS, reference compound]
- product formed [2]: produces the triketide methylpyrone; also recorded: yields methylpyrone produced from three malonyl-CoA molecules
- starter molecule accepted [2, 6]: accepts acetyl-CoA but does not use p-coumaroyl-CoA

Molecule: Wild-type CHS: wild type alfalfa chalcone synthase 2, SEQ ID NO:1 [reference compound]
- product formed [2]: generates the tetraketide chalcone
- preference for p-coumaroyl-CoA versus acetyl-CoA as starter molecule [2, 6]: 230 fold

Molecule: C/C=C/C/C=C/CCC(=O)[C@H]1O[C@H]1C(N)=O [Cerulenin]
- inhibition of CHS (CHS): potent irreversible inhibitor of CHS
- inactivation of CHS after preincubation with substrate (CHS; preincubation with coumaroyl-CoA or malonyl-CoA): Preincubation of CHS with coumaroyl-CoA prevents inactivation by cerulenin, but pre-incubation with malonyl-CoA does not

B1: C164S: alfalfa CHS C164S mutant (protein, listed as Medicago sativa)
chain: MVSVSEIRKAQRAEGPATILAIGTANPANCVEQSTYPDFYFKITNSEHKTELKEKFQRMCDKSMIKRRYMYLTEEILKENPNVCEYMAPSLDARQDMVVVEVPRLGKEAAVKAIKEWGQPKSKITHLIVCTTSGVDMPGADYQLTKLLGLRPYVKRYMMYQQGSFAGGTVLRLAKDLAENNKGARVLVVCSEVTAVTFRGPSDTHLDSLVGQALFGDGAAALIVGSDPVPEIEKPIFEMVWTAQTIAPDSEGAIDGHLREAGLTFHLLKDVPGIVSKNITKALVEAFEPLGISDYNSIFWIAHPGGPAILDQVEQKLALKPEKMNATREVLSEYGNMSSACVLFILDEMRKKSTQNGLKTTGEGLEWGVLFGFGPGLTIETVVLRSVAI
- catalytic / decarboxylation activity on malonyl-CoA [3]: retains decarboxylation activity; also recorded: retains limited catalytic activity; also recorded: produces acetyl-CoA

B2: T197L/G256L/S338I: CHS triple mutant with cavity resembling 2-PS (protein, listed as Medicago sativa)
chain: B1 chain with S164C, T197L, G256L, S338I
- product formed [2]: produces only methylpyrone
- starter molecule accepted [2, 6]: only accepts acetyl-CoA (or malonyl-CoA) as the starter molecule

B3: S338I: CHS S338I mutant (protein, listed as Medicago sativa)
chain: B1 chain with S164C, S338I
- product formed [2]: do not form chalcone
- product formed ([2]; listed as S3381): form a distinct product using coumaroyl-CoA as a starter molecule
- preference for p-coumaroyl-CoA versus acetyl-CoA as starter molecule [2, 6]: 3 fold

B4: G256L: CHS G256L mutant (protein, listed as Medicago sativa)
chain: B1 chain with S164C, G256L
- product formed [2]: do not form chalcone
- preference for acetyl-CoA as starter molecule [2, 6]: 3 fold

B5: 2B: alfalfa CHS mutant: A1 (D96A, V98L, V99A, V100M), A2 (T131S, S133T, G134T, V135P, M137L) (protein, UniProt P30074 1-389, looked up, variant D96A V98L V99A V100M T131S S133T G134T V135P M137L)
Chalcone synthase 2: B1 chain with D96A, V98L, V99A, V100M, T131S, S133T, G134T, V135P, M137L, S164C
- naringenin amount [4]: reduced amounts of naringenin compared to wild type CHS
- resveratrol amount [4]: little or no resveratrol

B6: T197L: CHS T197L mutant (protein, listed as Medicago sativa)
chain: B1 chain with S164C, T197L
- product formed [2]: do not form chalcone; also recorded: form a distinct product using coumaroyl-CoA as a starter molecule
- preference for p-coumaroyl-CoA versus acetyl-CoA as starter molecule [2, 6]: 10 fold

B7: 14B: alfalfa CHS mutant: V98L, T131S, S133T, G134T, V135P, M137L (protein, UniProt P30074 1-389, looked up, variant V98L T131S S133T G134T V135P M137L)
Chalcone synthase 2: B1 chain with V98L, T131S, S133T, G134T, V135P, M137L, S164C
- naringenin amount [4]: reduced amounts of naringenin compared to wild type CHS
- resveratrol amount [4]: little or no resveratrol

B8: A4: alfalfa CHS mutant: A4 (L268K, K269G, D270A, G273D) (protein, UniProt P30074 1-389, looked up, variant L268K K269G D270A G273D)
Chalcone synthase 2: B1 chain with S164C, L268K, K269G, D270A, G273D
- product profile (naringenin or chalcone versus resveratrol), cyclization specificity [4]: no effect on cyclization specificity

B9: I254M: CHS I254M mutant (protein, listed as Medicago sativa)
chain: B1 chain with S164C, I254M
- function and specific activity relative to wild-type enzyme [2]: functionally comparable to wild-type enzyme with a modest reduction in specific activity
- product formed [2]: yields chalcone

B10: 16B: alfalfa CHS mutant: V98L, T131S, S133T, G134T, V135P, M137L, M158G, Y160F (protein, UniProt P30074 1-389, looked up, variant V98L T131S S133T G134T V135P M137L M158G Y160F)
Chalcone synthase 2: B1 chain with V98L, T131S, S133T, G134T, V135P, M137L, M158G, Y160F, S164C
- naringenin amount [4]: reduced amounts of naringenin compared to wild type CHS
- resveratrol amount [4]: various amounts of resveratrol
- activity and kinetics compared with STS [5]: activity that is similar to the 18×CHS mutant

B11: 4B: alfalfa CHS mutant: A1 (four), A2 (five), A3 (M158G, Y160F), A4 (K269G) (protein, UniProt P30074 1-389, looked up, variant D96A V98L V99A V100M T131S S133T G134T V135P M137L M158G Y160F K269G)
Chalcone synthase 2: MVSVSEIRKAQRAEGPATILAIGTANPANCVEQSTYPDFYFKITNSEHKTELKEKFQRMCDKSMIKRRYMYLTEEILKENPNVCEYMAPSLDARQAMLAMEVPRLGKEAAVKAIKEWGQPKSKITHLIVCSTTTPDLPGADYQLTKLLGLRPYVKRYGMFQQGCFAGGTVLRLAKDLAENNKGARVLVVCSEVTAVTFRGPSDTHLDSLVGQALFGDGAAALIVGSDPVPEIEKPIFEMVWTAQTIAPDSEGAIDGHLREAGLTFHLLGDVPGIVSKNITKALVEAFEPLGISDYNSIFWIAHPGGPAILDQVEQKLALKPEKMNATREVLSEYGNMSSACVLFILDEMRKKSTQNGLKTTGEGLEWGVLFGFGPGLTIETVVLRSVAI
- naringenin amount [4]: reduced amounts of naringenin compared to wild type CHS
- resveratrol amount [4]: various amounts of resveratrol
